The assay concerns the target A2A adenosine receptor A2AAR N154Q (residues 1-316) (Homo sapiens, UniProt P29274, N154Q). The assay is described as follows: SPR. A general note: SPR reads the build-up and loss of mass on a sensor chip optically.

Sequence of A2A adenosine receptor A2AAR N154Q (residues 1-316) (P29274 1-316 N154Q): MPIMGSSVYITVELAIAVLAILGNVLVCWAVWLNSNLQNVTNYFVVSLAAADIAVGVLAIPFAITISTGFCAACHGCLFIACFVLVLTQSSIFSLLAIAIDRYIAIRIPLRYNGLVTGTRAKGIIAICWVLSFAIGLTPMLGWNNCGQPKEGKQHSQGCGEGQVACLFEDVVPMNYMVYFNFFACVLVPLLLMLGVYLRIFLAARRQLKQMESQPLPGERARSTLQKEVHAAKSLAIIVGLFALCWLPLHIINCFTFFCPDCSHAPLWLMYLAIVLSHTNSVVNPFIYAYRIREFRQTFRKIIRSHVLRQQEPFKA

B1: Fab2838, Fab fragment of mouse monoclonal antibody IgG2838 (Fab, V domains shown)
VH: EVQLQQSGAELVKPGSSVKISCKTSGDSFTAYNMNWVKQSHGKSLEWIGNINPYYGSTRYNQKFKGKATLTVDKSSSTAYIQLNSLTSEDSAVYYCAREGNYYDGGSVRYFDYWGQGTTLTVSS
VL: DIVMTQSPASLSASVGDTVTITCRASEFIYSSLTWYQQKQGGSPQLLVYAATNLADAVPSRFSGSGSGTQFSLKINRLQPEDFGTYYCQHFYGSTWAFGGGTKLEIK
In turn, B1 came in with a Kd of 4.4 nM.

Usually Kd stands for the concentration at which binding is half-saturated. A low value points to a tighter complex.

The record behind these values is PMC3303121 (Nature, 2012).
